Test [1] addresses T1, human PLK1-PBD (371-594) (human, UniProt P53350 371-594).
T1 construct: range 371-594; Made in E. coli as a GST fusion (pGEX6p-1); also called PBD of PLK1; purified PBD
Description: fluorescence polarization, FITC peptide 10 nM, PBD 0 to 4 µM. On the technique in general: In fluorescence polarisation assays a small probe gives low polarisation when free and higher when bound to something large.

For the next test, the target named is T2, human PLK3-PBD (412-646) (human, UniProt Q9H4B4 412-646).
T2 construct: range 412-646; GST fusion from pGEX6p-1, GST cleaved by 3C protease
T2 sequence (looked up): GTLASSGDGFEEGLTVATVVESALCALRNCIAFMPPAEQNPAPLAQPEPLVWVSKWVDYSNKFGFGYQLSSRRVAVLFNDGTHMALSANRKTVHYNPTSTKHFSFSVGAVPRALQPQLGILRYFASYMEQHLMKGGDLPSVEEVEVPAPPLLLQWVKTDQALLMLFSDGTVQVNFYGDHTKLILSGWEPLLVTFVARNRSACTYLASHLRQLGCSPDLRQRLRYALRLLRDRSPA
Description: fluorescence polarization, FITC peptide 10 nM. How it is done:
(§1) The final protein concentrations ranged from 0 to 4 uM, and the final peptide concentration was 10 nM. Fluorescence polarization was analyzed 30 min after mixing the peptide and proteins in a 96-well plate using an INFINTE 200 PRO (Tecan). Binding curves were fitted using the GraphPad Prism software.

In the next test the target is T3, human PLK2-PBD (451-685) (human, UniProt Q9NYY3 451-685).
T3 construct: range 451-685; GST fusion from pGEX6p-1, GST cleaved by 3C protease
T3 sequence (looked up): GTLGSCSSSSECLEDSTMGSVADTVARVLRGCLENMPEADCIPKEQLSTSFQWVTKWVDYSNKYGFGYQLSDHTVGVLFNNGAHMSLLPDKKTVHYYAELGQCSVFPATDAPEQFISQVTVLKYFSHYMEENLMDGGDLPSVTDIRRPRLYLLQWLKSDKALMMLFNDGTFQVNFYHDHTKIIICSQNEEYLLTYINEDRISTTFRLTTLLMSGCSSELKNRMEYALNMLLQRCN
Briefly: fluorescence polarization, FITC peptide 10 nM. How it is done: as §1

Test [2] addresses T1, human PLK1-PBD (371-594). Description: fluorescence polarization, FITC peptide 10 nM. How it is done:
as §1

Test [3] concerns the target T4, NCAPG2 (detected by immunoblotting in Flag-PLK1 immunoprecipitates) (human, UniProt Q86XI2 1-1143, limits assumed).
T4 construct: Apparently the cells' own NCAPG2
T4 sequence: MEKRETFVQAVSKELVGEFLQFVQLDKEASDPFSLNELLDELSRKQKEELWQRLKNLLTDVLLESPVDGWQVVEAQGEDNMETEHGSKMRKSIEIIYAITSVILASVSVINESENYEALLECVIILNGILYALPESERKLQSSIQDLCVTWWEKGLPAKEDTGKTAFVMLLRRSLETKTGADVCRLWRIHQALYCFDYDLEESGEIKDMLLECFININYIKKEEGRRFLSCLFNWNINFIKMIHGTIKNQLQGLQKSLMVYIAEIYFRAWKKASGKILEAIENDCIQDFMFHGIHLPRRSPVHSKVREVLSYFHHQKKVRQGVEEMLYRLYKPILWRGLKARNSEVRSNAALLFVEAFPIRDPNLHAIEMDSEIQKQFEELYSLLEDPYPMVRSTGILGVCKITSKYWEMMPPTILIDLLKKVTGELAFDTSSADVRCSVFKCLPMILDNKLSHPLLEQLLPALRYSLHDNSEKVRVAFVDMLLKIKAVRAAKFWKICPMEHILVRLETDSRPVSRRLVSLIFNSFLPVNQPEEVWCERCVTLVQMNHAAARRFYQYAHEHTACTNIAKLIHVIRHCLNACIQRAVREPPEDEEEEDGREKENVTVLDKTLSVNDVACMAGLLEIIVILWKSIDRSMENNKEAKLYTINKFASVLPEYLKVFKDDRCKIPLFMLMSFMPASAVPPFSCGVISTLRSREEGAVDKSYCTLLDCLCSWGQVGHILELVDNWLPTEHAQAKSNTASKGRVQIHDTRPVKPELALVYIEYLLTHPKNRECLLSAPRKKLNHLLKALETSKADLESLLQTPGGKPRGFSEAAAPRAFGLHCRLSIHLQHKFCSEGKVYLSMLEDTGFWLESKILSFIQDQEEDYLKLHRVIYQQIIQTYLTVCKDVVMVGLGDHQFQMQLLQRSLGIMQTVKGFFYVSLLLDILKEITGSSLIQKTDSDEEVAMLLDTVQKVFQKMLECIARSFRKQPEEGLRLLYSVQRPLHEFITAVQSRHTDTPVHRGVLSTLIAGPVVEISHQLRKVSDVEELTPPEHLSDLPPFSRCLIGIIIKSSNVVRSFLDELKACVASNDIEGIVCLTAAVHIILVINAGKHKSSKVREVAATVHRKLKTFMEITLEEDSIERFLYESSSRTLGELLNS
Description: Flag-bead pull-down, NCAPG2 immunoblot. How it is done:
The primary antibodies were purchased from commercial sources as follows: Histon H3 pS10 (Abcam, Cambridge, UK), NCAPG2 (Novus Biological, 1/1000), PLK1 (Novus Biological, 1/1000), BubR1 (BD Biosciences, 1/1000), β-actin (Sigma-Aldrich, 1/5000), and CREST (ImmunoVision, 1/1000). BubR1 676 antibodies (1/10000) were prepared as previously reported (Elowe, S., et al. Tension-sensitive Plk1 phosphorylation on BubR1 regulates the stability of kinetochore microtubule interactions. Genes Dev 21, 2205-19 (2007)). The precipitates were washed with TAP buffer three times at 4° C., re-suspended in 20 μl of 2X Sample buffer (125 mM Tris (pH 6.8), 200 mM DTT, 4% SDS, 20% Glycerol, 0.004% Bromophenol Blue) and proteins were denatured at 100° C. for 5 min.
For the detection of proteins using the immunoblottings, subjects were protein complexes from immunoprecipitation or whole cell lysates harvested from indicated conditions. Whole cells were harvested with lysis buffer (20 mM Tris, 5 mM EDTA, 10 mM Na₄P₂O₇, 100 mM NaF, 2 mM Na₃VO₄, 1% Np-40, 0.2% Protease Inhibitor Cocktail, and 1 mM PMSF) and centrifuged at 10,000 rpm, 4° C., 10 min. Protein concentration was determined using BCA™ protein assay kit (Pierce, Rockford, USA). […]
On the technique in general: A western blot detects proteins with antibodies after separation by electrophoresis.

Where no end group is shown, it is not given here. [ ]: non-standard residue; d: D form. pT = C[C@@H](OP(=O)(O)O)[C@H](N)C(=O)O

The results in this text go back to patent US20160347801A1 (NATIONAL CANCER CENTER, published 2016).

T1 sequence (P53350 371-594 limits assumed): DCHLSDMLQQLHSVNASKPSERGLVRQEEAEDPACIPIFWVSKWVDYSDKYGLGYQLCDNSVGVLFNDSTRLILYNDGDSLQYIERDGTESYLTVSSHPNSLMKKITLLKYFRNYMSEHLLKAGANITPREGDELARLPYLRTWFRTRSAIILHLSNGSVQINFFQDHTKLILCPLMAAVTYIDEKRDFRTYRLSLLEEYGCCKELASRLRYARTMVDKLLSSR

With FITC-labelled 1010pT peptide (GVLSpTLI), the equilibrium dissociation constant (Kd) (commonly the constant that tells how readily two partners part at equilibrium) with human PLK1-PBD (371-594) [1] is 69.9 nM.

B1: FITC-labelled 1010pT peptide (GVLSpTLI) (peptide)
peptide: GVLS[pT]LI
modifications: also: FITC label, site not given here
notes: this peptide carries pThr at the fifth position; also called phosphorylated 7-mer peptide 1006GVLS-pT-LI1012
Consider B1, for which the binding result with human PLK3-PBD (412-646) and with human PLK2-PBD (451-685) was “no binding (tested: protein 0 to 4 uM)” each time.

For GVLSDLI (also: FITC label, site not given here) [FITC-labeled 1010D peptide (GVLSDLI)], the binding result with human PLK1-PBD (371-594) [2] is “no binding (tested: protein 0 to 4 uM)”.

Regarding GVLSELI (also: FITC label, site not given here) [FITC-labeled 1010E peptide (GVLSELI)], the binding result with human PLK1-PBD (371-594) [2] is “no binding (tested: protein 0 to 4 uM)”.

B2: Flag-Plk1^FAA (other, UniProt P53350 1-603, looked up)
chain: MSAAVTAGKLARAPADPGKAGVPGVAAPGAPAAAPPAKEIPEVLVDPRSRRRYVRGRFLGKGGFAKCFEISDADTKEVFAGKIVPKSLLLKPHQREKMSMEISIHRSLAHQHVVGFHGFFEDNDFVFVVLELCRRRSLLELHKRRKALTEPEARYYLRQIVLGCQYLHRNRVIHRDLKLGNLFLNEDLEVKIGDFGLATKVEYDGERKKTLCGTPNYIAPEVLSKKGHSFEVDVWSIGCIMYTLLVGKPPFETSCLKETYLRIKKNEYSIPKHINPVAASLIQKMLQTDPTARPTINELLNDEFFTSGYIPARLPITCLTIPPRFSIAPSSLDPSNRKPLTVLNKGLENPLPERPREKEEPVVRETGEVVDCHLSDMLQQLHSVNASKPSERGLVRQEEAEDPACIPIFWVSKFVDYSDKYGLGYQLCDNSVGVLFNDSTRLILYNDGDSLQYIERDGTESYLTVSSHPNSLMKKITLLKYFRNYMSEHLLKAGANITPREGDELARLPYLRTWFRTRSAIILHLSNGSVQINFFQDATALILCPLMAAVTYIDEKRDFRTYRLSLLEEYGCCKELASRLRYARTMVDKLLSSRSASNRLKAS
notes: also called FAA mutant; substrate non recognizable FAA mutant; not shown: Flag tag
As to B2, the binding result in test [3] is on record as “no binding”.
